Source: article PMC314469, “Protein Interaction Networks by Proteome Peptide Scanning” (PLoS Biology, 2004)

T1: Myo5 SH3 (MYO5_YEAST), Q04439
T1 chain: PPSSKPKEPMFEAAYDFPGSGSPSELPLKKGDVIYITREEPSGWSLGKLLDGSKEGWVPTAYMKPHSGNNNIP


Target: T1, Myo5 SH3 (MYO5_YEAST), Q04439
Assay: SPOT array

normalised SPOT signal, Boehringer light units (BLU); mean over the file's lines of this peptide	Binder
383	IARPLSVPGSPKVR [YFR015C 646-659]
96.9	IATMYPIPAYPDLL [YJL127C 53-66]
180	IERVWNGPVEPSDE [YIL067C 73-86]
81.4	ILSAYNSPKVPADI [YGR175C 270-283]
122	HFLSLDPPIDPNNL [YMR075W 283-296]
205	GPIIHPGPEPPRYD [YPR030W 1104-1117]
246	HLFHLTTPQDPRLL [YKL191W 249-262]
162	GPLLLTVPELPEAD [YLR338W 178-191]
228	HAVLLNPPVAPTAE [YPL012W 184-197]
238	GLIAHQGPQFPVMG [YKL204W 458-471]
150	GLLTYKGPKVPYQK [YHR028C 497-510]
61.4	IEPDFIEPDAPLAA [YGL198W 10-23]
255	IAGMLMVPESPRFL [YMR011W 241-254]
238	HPHPHPHPHTPTHT [YHR217C 23-36]
114	IEITHSEPAIPYRE [YNL163C 742-755]
261	HLTDLSPPGTPPTM [YMR165C 272-285]
160	GLRELFLPGMPGLM [YPL249C 557-570]
240	IFQSLLHPELPIII [YPR169W 50-63]
21.6	GLLLLFVPDSPYDP [YLR106C 2903-2916]
147	HEYNLALPKFPILF [YMR088C 27-40]

normalised SPOT signal, Boehringer light units (BLU); mean over the file's lines of this peptide	Binder
129	HEHNYAIPYTPATF [YBR238C 43-56]
168	GWPVYNYPMQPTTE [YER109C 286-299]
384	IEVPMEYPFKPPKM [YDR177W 56-69]
84.8	IEEGHLDPEAPDKL [YOR301W 105-118]
121	HLDSFSPPFSPSTT [YPL230W 298-311]
87.4	GPEFWISPDTPLKF [YJL093C 632-645]
503	IFFKLIHPFLPILH [YIR023W 322-335]
75.9	GWEPFSLPKDPKVV [YML018C 282-295]
152	HFYEYVYPSLPFIE [YAL051W 349-362]
213	HPEYLSLPFEPYSF [YLR054C 108-121]
130	GLHDYTSPASPKQT [YOR267C 107-120]
21.6	ILPVLNIPLPPQEK [YER132C 923-936]
118	HLVVWNPPILPQHE [YDR291W 495-508]
20400	GPSQFAPPPPPPGV [YCR077C 189-202]
508	GFVFFIAPHLPVDL [YER003C 399-412]
158	GFDGYMQPIIPGKT [YDR390C 147-160]
112	HFLAYTNPRAPGKL [YIL054W 29-42]
143	IAESLGVPWEPVDL [YGR088W 547-560]
453	GWVVYPPPPKPSYN [YML035C 223-236]
1370	ILIFLWIPDDPSKA [YJR152W 263-276]

normalised SPOT signal, Boehringer light units (BLU); mean over the file's lines of this peptide	Binder
822	HAWDMRSPHRPFYS [YDR128W 140-153]
457	HPSGLNSPKLPPLP [YNL152W 370-383]
151	HATLYWAPVSPLKS [YLR305C 1420-1433]
78.1	HEKLYHNPSLPAQS [YKL217W 53-66]
468	GLRWYRSPIYPYLY [YEL050C 102-115]
114	GWSTYIPPFNPLEI [YNL088W 836-849]
174	ILHQLGAPSIPENL [YBL004W 2280-2293]
167	GLDALNIPHKPKQL [YHR033W 57-70]
247	IAKPYVLPFFPLYA [YEL031W 24-37]
325	HAEAFEDPSIPRIS [YGL195W 985-998]
92.5	HFNDLQSPAQPQQS [YMR164C 264-277]
279	HLARYIFPPNPVFH [YBR007C 426-439]
204	IARSFTIPFLPKIP [YLR164W 20-33]
242	GEYDLIMPIYPYRL [YIL173W 521-534]
116	GLIGMNDPPRPNVK [YGL167C 574-587]
318	HPIHLQPPVPPVYK [YOR032C 88-101]
563	HPYMMVYPMSPPPP [YHL024W 649-662]
134	IEFDLSKPFTPFQQ [YGL173C 578-591]
